Results published in PMC9482655 (2022).

B1: JUNO ectodomain (BLI analyte; target protein of the pull-down) (domain or fragment)
chain: GDELLNICMNAKHHKRVPSPEDKLYEECIPWKDNACCTLTTSWEAHLDVSPLYNFSLFHCGLLMPGCRKHFIQAICFYECSPNLGPWIQPVGSLGWEVAPSGQGERVVNVPLCQEDCEEWWEDCRMSYTCKSNWRGGWDWSQGKNRCPKGAQCLPFSHYFPTPADLCEKTWSNSFKASPERRNSGRCLQKWFEPAQGNPNVAVARLFAS
B2: IZUMO1 ectodomain (BLI analyte) (domain or fragment)
chain: CVICDPSVVLALKSLEKDYLPGHLDAKHHKAMMERVENAVKDFQELSLNEDAYMGVVDEATLQKGSWSLLKDLKRITDSDVKGDLFVKELFWMLHLQKETFATYVARFQKEAYCPNKCGVMLQTLIWCKNCKKEVHACRKSYDCGERNVEVPQMEDMILDCELNWHQASEGLTDYSFYRVWGNNTETLVSKGKEATLTKPMVGPEDAGSYRCELGSVNSSPATIINFHVTVLPKMIKEEKPSPNIVTPGEATTESSISLQPLQPEKMLASR

Tests used:
[1] = molecular target: IZUMO1 ectodomain, biotin-labelled, sensor-bound (human, UniProt Q8IYV9 22-292, biotin on free lysine residues (EZ link sulfo-NHS-LC-biotinylation kit, 1:1 protein to biotin ratio)); experiment: BLI
[2] = molecular target: JUNO ectodomain, biotin-labelled, sensor-bound (UniProt A6ND01 20-228, biotin on free lysine residues (EZ link sulfo-NHS-LC-biotinylation kit, 1:1 protein to biotin ratio)); experiment: BLI

| Binder | Kd [1] [µM] | Kd [2] [µM] |
| --- | --- | --- |
| B1 | 0.0142 | – |
| B2 | – | 0.0368 |
